Experimental data taken from patent US20230192897A1 (NUMAB THERAPEUTICS, published 2023).
One block for each binder: values may come before it.

Key:
human PDL1 on cells = human PDL1 on cells (human, UniProt Q9NZQ7 19-290); assay: cell-based or functional assay
[1] = target: T1, CD137 on Jurkat NFkB reporter cells (human, UniProt Q07011 24-255); assay: cell-based or functional assay
[2] = target: T1, CD137 on Jurkat NFkB reporter cells; assay: cell-based or functional assay; remark: listed apart in the source
[3] = target: T1, CD137 on Jurkat NFkB reporter cells; assay: cell-based or functional assay; remark: listed apart in the source
[4] = target: T1, CD137 on Jurkat NFkB reporter cells; assay: cell-based or functional assay; remark: listed apart in the source
[5] = target: human PDL1 extracellular domain (human, UniProt Q9NZQ7 19-238); assay: SPR, IgG format captured
Method: (§1) Affinity to PDL1 of the different species was determined by SPR measurements using a Biacore T200 device (GE Healthcare). An antibody specific for the Fc region of human IgGs was immobilized on a sensor chip (CM5 sensor chip, GE Healthcare) by amine-coupling. For all formats, with the exception of the Fc containing Morrison formats, PDL1-Fc chimeric protein from different species were captured by the immobilized antibody.
(§2) The Fc containing formats were directly captured by the antibody specific for the Fc region of human IgGs. Two-fold serial dilutions of PDL1 extracellular domain or CD137 extracellular domain ranging from 90 to 0.35 nM were tested for binding to the IgG captured on the biosensor chip. After each injection cycle, surfaces were regenerated with one injection of a 3 M MgCl2 solution.

[6] = target: T2, human CD137 extracellular domain (human, UniProt Q07011 24-186); assay: SPR, IgG format captured
T2 construct: also called CD137 (PeproTech, cat. 310-15)
Method: as §1, §2

biotinylated human PDL1 [7] = target: T3, biotinylated human PDL1 (human, UniProt Q9NZQ7 19-238, limits assumed, biotinylated); assay: competition ELISA B7.1/PDL1
T3 construct: also called biotinylated PDL1
In short: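 Test mixtures containing biotinylated human PDL1 were pre-incubated 1 h at room temperature, then incubated 1.5 h on the plate under agitation. Bound PDL1 detected with 10 ng/ml streptavidin-polyHRP40 and TMB, stopped at 6 min with HCl, read at 450 nm minus 690 nm. IC₅₀ from 4PL fit.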

biotinylated human PDL1 [8] = target: T3, biotinylated human PDL1; assay: competition ELISA PD-1/PDL1
Fc tagged human PDL1 = target: T4, Fc tagged human PDL1 (human, UniProt Q9NZQ7 19-239); assay: SPR
T4 construct: Bought (Sino Biological, cat. 10084-H02H); captured on the SPR chip; also called PDL1-Fc chimeric protein

Fc tagged human CD137 = target: T5, Fc tagged human CD137 (human, UniProt Q07011 24-186); assay: SPR
T5 construct: also called CD137-Fc chimeric protein
In short: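 Kinetics were fitted with a one-to-one Langmuir model to give apparent ka, kd and KD. Binders at 0.12-90 nM (three-fold series) flowed 3 min, with 10 min dissociation and 3 M MgCl₂ regeneration, on a Biacore T200.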

- IC50 (ng/ml), NF-AT potency assay (human PDL1 on cells): 133 ng/mL
- rel. IC50 (avelumab/test) (human PDL1 on cells): 0.44 fold
- EC50, NFkB reporter, CHO-PDL1, 6 h [1]: 0.0564 µg/mL
- EC50, NFkB reporter, CHO-PDL1, 24 h [2]: 0.0808 µg/mL
- EC50, NFkB reporter, HCC827 with IFNg, 24 h [3]: 0.0175 µg/mL
- EC50, NFkB reporter, HCC827 without IFNg, 24 h [3]: 0.0136 µg/mL
- IC50 (ng/ml), NFkB reporter, CHO-PD-L1, 24 h [4]: 80.8 ng/mL
- IC50 (ng/ml), NFkB reporter, HCC827 + IFNg, 24 h [4]: 17.5 ng/mL
- IC50 (ng/ml), NFkB reporter, HCC827 - IFNg, 24 h [4]: 13.6 ng/mL
- rel. IC50 (urelumab/test), NFkB reporter, CHO-PD-L1, 24 h [4]: 0.58 fold
- rel. IC50 (urelumab/test), NFkB reporter, HCC827 + IFNg, 24 h [4]: 3.01 fold
- rel. IC50 (urelumab/test), NFkB reporter, HCC827 - IFNg, 24 h [4]: 3.5 fold
- koff [5]: 4.6e-05 s⁻¹
- kon [5]: 1.3e+06 M⁻¹ s⁻¹
- Kd [6]: 1.3 nM
- koff [6]: 0.00039 s⁻¹
- IC50 (biotinylated human PDL1 [7]): 0.0174 µg/mL
- rel. IC50 (IC50 avelumab/IC50 test) (biotinylated human PDL1 [7]): 0.49 fold
- IC50 (biotinylated human PDL1 [8]): 0.00567 µg/mL
- rel. IC50 (IC50 avelumab/IC50 test) (biotinylated human PDL1 [8]): 0.3 fold
B1: PRO1060 (bispecific antibody, human IgG1, kappa, L234A L235A)
light: DIQMTQSPSSLSASVGDRVTITCQASQSINDYLAWYQQKPGKAPKLLIYKASTLASGVPSRFSGSGSGTDFTLTISSLQPEDFATYYCQQGYIITDIDNVFGTGTKVTVLGTVAAPSVFIFPPSDEQLKSGTASVVCLLNNFYPREAKVQWKVDNALQSGNSQESVTEQDSKDSTYSLSSTLTLSKADYEKHKVYACEVTHQGLSSPVTKSFNRGEC
heavy: QVQLQESGPGLVKPSETLSLTCKVSGFSFSSGYDMCWIRQPPGKGLEWIGCVVAGSVDITYYASWAKGRVTISVDSSKNQFSLKLSSVTAADTAVYYCARKDAYSDAFNLWGQGTLVTVSSASTKGPSVFPLAPSSKSTSGGTAALGCLVKDYFPEPVTVSWNSGALTSGVHTFPAVLQSSGLYSLSSVVTVPSSSLGTQTYICNVNHKPSNTKVDKRVEPKSCDKTHTCPPCPAPEAAGGPSVFLFPPKPKDTLMISRTPEVTCVVVDVSHEDPEVKFNWYVDGVEVHNAKTKPREEQYNSTYRVVSVLTVLHQDWLNGKEYKCKVSNKALGAPIEKTISKAKGQPREPQVYTLPPSREEMTKNQVSLTCLVKGFYPSDIAVEWESNGQPENNYKTTPPVLDSDGSFFLYSKLTVDKSRWQQGNVFSCSVMHEALHNHYTQKSLSLSPGKGGGGSGGGGSIQMTQSPSSLSASVGDRVTITCQASQSINNVLAWYQQKPGKAPKLLIYRASTLASGVPSRFSGSGSGTDFTLTISSLQPEDFATYYCQSSYGNYGDFGTGTKVTVLGGGGGSGGGGSGGGGSGGGGSQVQLQESGPGLVKPSETLSLTCKVSGFSFSNSYWICWIRQPPGKGLEWIGCTFVGSSDSTYYANWAKGRVTISVDSSKNQFSLKLSSVTAADTAVYYCARHPSDAVYGYANNLWGQGTLVTVSS
notes: silent hIgG1 anti-PDL1 with anti-CD137 scFv on the heavy chain; also called 33-03-G02 IgG1 HC with 38-02-A04 sc01 scFv; Morrison-H

- binding result (Fc tagged human PDL1): binds
- koff (Fc tagged human CD137): 0.0021 s⁻¹
- EC50, NFkB reporter, CHO-PDL1, 6 h, +HSA [1]: 0.0709 µg/mL
- EC50, NFkB reporter, CHO-PDL1, 24 h, +HSA [2]: 0.121 µg/mL
- IC50 (ng/ml), NFkB reporter, CHO-PD-L1, 24 h, +HSA [4]: 121 ng/mL
- max. activation (%), NFkB reporter, CHO-PD-L1, 24 h, +HSA [4]: 36.2%
- rel. IC50 (urelumab/test), NFkB reporter, CHO-PD-L1, 24 h, +HSA [4]: 0.64 fold
B2: PRO1058 (other)
chain: DIQMTQSPSSLSASVGDRVTITCQASQSINDYLAWYQQKPGKAPKLLIYKASTLASGVPSRFSGSGSGTDFTLTISSLQPEDFATYYCQQGYIITDIDNVFGTGTKVTVLGGGGGSQVQLQESGPGLVKPSETLSLTCKVSGFSFNNDYDMCWIRQPPGKGLEWIGCIDTGDGSTYYASWAKGRVTISVDSSKNQFSLKLSSVTAADTAVYYCAREAASSSGYGMGYFDLWGQGTLVTVSSGGGGSGGGGSGGGGSGGGGSIQMTQSPSSLSASVGDRVTITCQSSQSVYDNNWLAWYQQKPGKAPKLLIYRASNLASGVPSRFSGSGSGTDFTLTISSLQPEDFATYYCQGTYLSSNWYWAFGTGTKVTVLGGGGGSQVQLQESGPGLVKPSETLSLTCKVSGFSFSSGYDMCWIRQPPGKGLEWIGCVVAGSVDITYYASWAKGRVTISVDSSKNQFSLKLSSVTAADTAVYYCARKDAYSDAFNLWGQGTLVTVSSGGGGSGGGGSVVMTQSPSSLSASVGDRVTITCQASQIISSRSAWYQQKPGQPPKLLIYQASKLASGVPSRFSGSGSGTDFTLTISSLQPEDFATYYCQCTYIDSNFGAFGGGTKLTVLGGGGGSGGGGSGGGGSGGGGSEVQLVESGGGLVQPGGSLRLSCAASGFSFSSSYWICWVRQAPGKGLEWVGCVFTGDGTTYYASWAKGRFTISRDNSKNTVYLQMNSLRAEDTATYFCARPVSVYYYGMDLWGQGTLVTVSS
notes: trispecific scDb-scFv; also called 38-27-C05 sc01 scDb-i/33-03-G02 sc01 scDb-o/23-13-A01-sc03, sk17sh4
